Measurements reported in patent US20080125365A1 (UNIVERSITY OF IOWA RESEARCH FOUNDATION, published 2008).

How the values were obtained:
[1] = biological target: recombinant soluble TLR4 extracellular domain (amino acids 24-634), FLAG-tagged (UniProt O00206); assay: co-expression with TLR4ECD, harvested medium incubated with [3H]LOS:sCD14, gel filtration
[2] = biological target: T1, recombinant soluble TLR4 extracellular domain (amino acids 24-634), FLAG-tagged (UniProt O00206 24-634); assay: [3H]LOS:MD-2 F126A incubated 30 min at 37 C with concentrated TLR4ECD medium, Mr ~190,000 complex by gel filtration, Scatchard analysis
T1 construct: range 24-634; Used as concentrated conditioned medium of HEK293T cells, not purified; also called TLR4ECD; FLAG-TLR4ECD; not shown: N-terminal FLAG tag from pFLAG-CMV
T1 sequence (O00206 24-634): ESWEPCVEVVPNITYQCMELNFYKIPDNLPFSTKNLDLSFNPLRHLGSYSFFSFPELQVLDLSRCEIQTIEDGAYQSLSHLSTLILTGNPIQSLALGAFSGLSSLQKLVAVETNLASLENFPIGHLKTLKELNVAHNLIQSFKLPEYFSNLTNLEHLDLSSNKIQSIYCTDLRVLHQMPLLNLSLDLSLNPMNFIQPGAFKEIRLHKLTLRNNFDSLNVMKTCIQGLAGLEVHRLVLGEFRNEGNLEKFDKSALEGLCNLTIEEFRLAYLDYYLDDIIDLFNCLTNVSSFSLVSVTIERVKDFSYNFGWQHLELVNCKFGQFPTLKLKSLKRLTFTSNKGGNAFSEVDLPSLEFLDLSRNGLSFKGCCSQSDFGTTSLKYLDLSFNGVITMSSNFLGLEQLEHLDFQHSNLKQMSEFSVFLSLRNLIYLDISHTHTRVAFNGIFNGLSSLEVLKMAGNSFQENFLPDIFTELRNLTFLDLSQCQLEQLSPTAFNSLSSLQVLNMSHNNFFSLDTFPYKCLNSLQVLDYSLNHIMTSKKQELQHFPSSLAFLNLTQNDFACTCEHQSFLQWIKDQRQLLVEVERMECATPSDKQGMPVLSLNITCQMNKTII

[3] = biological target: T1, recombinant soluble TLR4 extracellular …; assay: saturation binding of [3H]LOS:MD-2 (25,000 cpm/pmol) to soluble TLR4ECD, complex resolved by gel filtration
[4] = biological target: T2, TLR4 stably expressed on HEK293 cells (HEK/TLR4) (UniProt O00206 24-839, limits assumed); assay: overnight incubation with HEK/TLR4 cells at 37 C, cell-associated radioactivity by liquid scintillation
T2 construct: whole, on cells; Cells from Eisai Research Institute (Yang et al., 2000) or Invivogen; also called HEK293/TLR4; cellular TLR4
T2 sequence (O00206 24-839 limits assumed): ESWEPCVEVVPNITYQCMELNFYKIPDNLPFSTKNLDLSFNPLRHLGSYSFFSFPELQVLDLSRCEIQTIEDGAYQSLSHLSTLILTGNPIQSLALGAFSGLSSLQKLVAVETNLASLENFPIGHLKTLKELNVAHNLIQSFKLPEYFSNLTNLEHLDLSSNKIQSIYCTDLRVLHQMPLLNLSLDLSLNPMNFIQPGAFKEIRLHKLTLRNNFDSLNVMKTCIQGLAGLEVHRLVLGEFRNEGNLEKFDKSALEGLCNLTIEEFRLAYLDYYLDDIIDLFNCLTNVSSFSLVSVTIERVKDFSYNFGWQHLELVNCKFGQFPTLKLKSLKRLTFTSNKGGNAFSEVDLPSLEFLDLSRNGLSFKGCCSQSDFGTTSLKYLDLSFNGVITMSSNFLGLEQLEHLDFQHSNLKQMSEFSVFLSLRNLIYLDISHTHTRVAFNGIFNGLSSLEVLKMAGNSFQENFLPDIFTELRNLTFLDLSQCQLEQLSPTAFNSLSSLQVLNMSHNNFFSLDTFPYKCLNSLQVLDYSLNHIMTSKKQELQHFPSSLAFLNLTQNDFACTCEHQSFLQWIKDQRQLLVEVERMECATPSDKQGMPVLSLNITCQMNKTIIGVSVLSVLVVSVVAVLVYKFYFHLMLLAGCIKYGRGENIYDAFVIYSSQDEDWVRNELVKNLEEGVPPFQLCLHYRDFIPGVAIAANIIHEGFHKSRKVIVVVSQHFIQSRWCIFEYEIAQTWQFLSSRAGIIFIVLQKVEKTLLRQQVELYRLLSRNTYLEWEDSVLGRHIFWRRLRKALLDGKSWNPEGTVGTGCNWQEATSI

[5] = biological target: T1, recombinant soluble TLR4 extracellular …; assay: culture medium of HEK293T cells secreting TLR4ECD spiked with [3H]LOS:sCD14, Sephacryl S200 gel filtration

recombinant soluble TLR4 extracellular domain (amino acids 24-634), FLAG-tagged (UniProt O00206), sequence (O00206 24-634): as the sequence (O00206 24-634) above

With “human MD-2 Y131A.K132A double mutant (from UniProt Q9Y6Y9 19-160)” the reduction of the yield of ([^3H]LOS:MD-2/TLR4ECD)2 against the single mutants [1] was 50%.

B1: monomeric complex of wild-type LOS with human MD-2 F126A (ligand)
chain: QKQYWVCNSSDASISYTYCDKMQYPISINVNPCIELKRSKGLLHIFYIPRRDLKQLYFNLYITVNTMNLPKRKEVICRGSDDDYSFCRALKGETVNTTISFSFKGIKASKGKYKCVVEAISGSPEEMLFCLEFVILHQPNSN
notes: mature; Made in HEK293T cells (MD-2-FLAG-His) for analytical work and in High Five insect cells for preparative amounts; also called LOS:MD-2^F126A; [^3H]LOS:MD-2^F126A; not shown: C-terminal tag: pEF-BOS-MD-2^F126A-FLAG-His insert moved into pBAC11; which tag
Molecule B1 has a Kd [2] of roughly 0.2 nM.

B2: monomeric complex of wild-type (hexa-acylated) N. meningitidis LOS with wild-type human MD-2-His6 (ligand)
chain: QKQYWVCNSSDASISYTYCDKMQYPISINVNPCIELKRSKGLLHIFYIPRRDLKQLYFNLYITVNTMNLPKRKEVICRGSDDDYSFCRALKGETVNTTISFSFKGIKFSKGKYKCVVEAISGSPEEMLFCLEFVILHQPNSNHHHHHH
notes: mature; Mr ~25,000; Radiolabel (3H or 14C) is on the LOS; also called [^3H]LOS:MD-2; [^3H]LOS:MD-2-His6
With B2 the Kd [3] was less than 0.3 nM.

B3: monomeric complex of LOS with soluble CD14 (other)
chain: TTPEPCELDDEDFRCVCNFSEPQPDWSEAFQCVSAVEVEIHAGGLNLEPFLKRVDADADPRQYADTVKALRVRRLTVGAAQVPAQLLVGALRVLAYSRLKELTLEDLKITGTMPPLPLEATGLALSSLRLRNVSWATGRSWLAELQQWLKPGLKVLSIAQAHSPAFSCEQVRAFPALTSLDLSDNPGLGERGLMAALCPHKFPAIQNLALRNTGMETPTGVCAALAAAGVQPHSLDLSHNSLRATVNPSAPRCMWSSALNSLNLSFAGLEQVPKGLPAKLRVLDLSCNRLNRAPQPDELPEVDNLTLDGNPFLVPGTALPHEGSMNSGVVPACARSTLSVGVSGTLVL
notes: Mr ~60,000; also called LOS:sCD14; [^3H]LOS:sCD14
B3: no binding (tested: 0.75 ng/ml ^3H-LOS) [4]; no binding (tested: 1 nM [^3H]LOS:sCD14) [5].
